Test results from patent US20060264369, “Aptamers to von Willebrand Factor and their use as thrombotic disease therapeutics” (published 2006).

Molecular target: von Willebrand factor full length (Homo sapiens, UniProt P04275 SEQ:764-2813)
Assay: filter
Conditions: tags: Calbiochem 681300
Procedure: For KD determination, chemically synthesized aptamers were purified using denaturing polyacrylamide gel electrophoresis, 5′end labeled with γ-³²P ATP and were tested for direct binding to full length human vWF (Calbiochem Cat.# 681300, La Jolla, Calif.). An 8 point protein titration was used in the dot blot binding assay (100 nM, 30 nM, 10 nM, 3 nM, 1 nM, 300 pM, 100 pM, 0 pM)) in 1× Dulbecco's PBS containing […] (final volume of 50 uL) for 30 minutes at room temperature. KD values were calculated by fitting the equation y=(max/(1+K/protein))+yint using KaleidaGraph (KaleidaGraph v. 3.51, Synergy Software).

Binder | Kd [nM]
GCGUGCAGUGCCUUCGGCCGTGCGGTGCCUCCGUCACGC (mixed, 2'-OMe at 1-4,8-18,20,22,27,28,30,33,34,36-39, rest deoxy; PS between 4 and 5; 3'-idT) [ARC1362] | 9.9
GCGUGCAGUGCCUUCGGCCGTGCGGTGCCUCCGUCACGC (mixed, 2'-OMe at 1-4,8-18,20,22,27,28,30,33,34,36-39, rest deoxy; PS between 6 and 7; 3'-idT) [ARC1364] | 8.2
GCGUGCAGUGCCUUCGGCCGTGCGGTGCCUCCGUCACGC (mixed, 2'-OMe at 1-4,8-18,20,22,27,28,30,33,34,36-39, rest deoxy; PS between 25 and 26; 3'-idT) [ARC1373] | 7.1
GCGUGCAGUGCCUUCGGCCGTGCGGTGCCUCCGUCACGC (mixed, 2'-OMe at 1-4,8-18,20,22,27,28,30,33,34,36-39, rest deoxy; PS between 21 and 22; 3'-idT) [ARC1369] | 16.3
GCGUGCAGUGCCUUCGGCCGTGCGGTGCCUCCGUCACGC (mixed, 2'-OMe at 1-4,8-18,20,22,27,28,30,33,34,36-39, rest deoxy; PS between 23 and 24; 3'-idT) [ARC1371] | 8.4
GCGUGCAGUGCCUUCGGCCGTGCGGTGCCUCCGUCACGC (mixed, 2'-OMe at 1-4,8-18,20,22,27,28,30,33,34,36-39, rest deoxy; PS between 35 and 36; 3'-idT) [ARC1381] | 8.7
GCGUGCAGUGCCUUCGGCCGTGCGGTGCCUCCGUCACGC (mixed, 2'-OMe at 1-4,8-18,20,22,27,28,30,33,34,36-39, rest deoxy; PS between 30 and 31; 3'-idT) [ARC1377] | 7.4
GCGUGCAGUGCCUUCGGCCGTGCGGTGCCUCCGUCACGC (mixed, 2'-OMe at 1-4,8-18,20,22,27,28,30,33,34,36-39, rest deoxy; PS between 5 and 6; 3'-idT) [ARC1363] | 12.7
GCGUGCAGUGCCUUCGGCCGTGCGGTGCCUCCGUCACGC (mixed, 2'-OMe at 1-4,8-18,20,22,27,28,30,33,34,36-39, rest deoxy; PS between 31 and 32; 3'-idT) [ARC1378] | 9.1
GCGUGCAGUGCCUUCGGCCGTGCGGTGCCUCCGUCACGC (mixed, 2'-OMe at 1-4,8-18,20,22,27,28,30,33,34,36-39, rest deoxy; PS between 7 and 8; 3'-idT) [ARC1365] | 10.8
GCGUGCAGUGCCUUCGGCCGTGCGGTGCCUCCGUCACGC (mixed, 2'-OMe at 1-4,8-18,20,22,27,28,30,33,34,36-39, rest deoxy; PS between 18 and 19; 3'-idT) [ARC1366] | 15.5
GCGUGCAGUGCCUUCGGCCGTGCGGTGCCUCCGUCACGC (mixed, 2'-OMe at 1-4,8-18,20,22,27,28,30,33,34,36-39, rest deoxy; PS between 19 and 20; 3'-idT) [ARC1367] | 13.9
GCGUGCAGUGCCUUCGGCCGTGCGGTGCCUCCGUCACGC (mixed, 2'-OMe at 1-4,8-18,20,22,27,28,30,33,34,36-39, rest deoxy; PS between 32 and 33; 3'-idT) [ARC1379] | 10.4
GCGUGCAGUGCCUUCGGCCGTGCGGTGCCUCCGUCACGC (mixed, 2'-OMe at 1-4,8-18,20,22,27,28,30,33,34,36-39, rest deoxy; PS between 24 and 25; 3'-idT) [ARC1372] | 23.5
GCGUGCAGUGCCUUCGGCCGTGCGGTGCCUCCGUCACGC (mixed, 2'-OMe at 1-4,8-18,20,22,27,28,30,33,34,36-39, rest deoxy; PS between 34 and 35; 3'-idT) [ARC1380] | 12
GCGUGCAGUGCCUUCGGCCGTGCGGTGCCUCCGUCACGC (mixed, 2'-OMe at 1-4,8-18,20,22,27,28,30,33,34,36-39, rest deoxy; PS between 28 and 29; 3'-idT) [ARC1375] | 8.8
GCGUGCAGUGCCUUCGGCCGTGCGGTGCCUCCGUCACGC (mixed, 2'-OMe at 1-4,8-18,20,22,27,28,30,33,34,36-39, rest deoxy; PS between 22 and 23; 3'-idT) [ARC1370] | 10.1
GCGUGCAGUGCCUUCGGCCGTGCGGTGCCUCCGUCACGC (mixed, 2'-OMe at 1-4,8-18,20,22,27,28,30,33,34,36-39, rest deoxy; PS between 29 and 30; 3'-idT) [ARC1376] | 4.4
GCGUGCAGUGCCUUCGGCCGTGCGGTGCCUCCGUCACGC (mixed, 2'-OMe at 1-4,8-18,20,22,27,28,30,33,34,36-39, rest deoxy; PS between 26 and 27; 3'-idT) [ARC1374] | 9.5

Molecular target: von Willebrand factor A1 domain (Homo sapiens, UniProt P04275 SEQ:13-246)
Assay: filter; DPBS, 0.1 mg/mL BSA, RT
Conditions: label: 5'-32P
Procedure: Based on this initial screen, KD's were determined for 16 of the best vWF dependent binding sequences using the dot blot assay. […] A 6 point protein titration of human vWF A1 domain (SEQ ID NO 5) was used in the dot blot assay (333 nM, 100 nM, 33 nM, 10 nM, 3 nM, 0 nM) in 1× DPBS plus 0.1 mg/mL BSA at room temperature for 30 minutes. KD values were calculated by fitting the equation y=(max/(1+K/protein))+yint using KaleidaGraph (KaleidaGraph v. 3.51, Synergy Software).

Binder | Kd [nM]
AMX205.H8 (mixed, 2'-OH purines, deoxy pyrimidines) DNA: GGAGCGCACTCAGCCACAAACGGACGGTGATGGATTAACGCGGGTTTATGGCAAGGTTTCGACCTCTCTGCTAGC | 788
AMX203.D6 (mixed, 2'-OH purines, deoxy pyrimidines) DNA: GGAGCGCACTCAGCCACAGTTCTGTCGGTGATGAATTAGCGCGAGAGCTGTGGGACGTTTCGACCTCTCTGCTAGC | 523
AMX203.A1 (mixed, 2'-OH purines, deoxy pyrimidines) DNA: GGAGCGCACTCAGCCACAGTTCTGTCGGTGATGAATTAGCGCGGGAGCTGTGGGACGTTTCGACCTCTCTGCTAGC | 1150
AMX205.H11 (mixed, 2'-OH purines, deoxy pyrimidines) DNA: GGAGCGCACTCAGCCACGGCACGACGGTGATGGATTAGCGCGGTGTCGGTGGTGTCATTTCGACCTCTCTGCTAGC | 144
AMX206.A10 (mixed, 2'-OH purines, deoxy pyrimidines) DNA: GGAGCGCACTCAGCCACGGCATGACGGTGATGAATTAGCGCGGTGTCGGTGGTGTCATTTCGACCTCTCTGCTAGC | 111
AMX206.D7 (mixed, 2'-OH purines, deoxy pyrimidines) DNA: GGAGCGCACTCAGCCACGGCACGACGGTGATGAATTAGCGCGGTGTCGGTGGTGTTATTTCGACCTCTCTGCTAGC | 187
AMX205.D11 (mixed, 2'-OH purines, deoxy pyrimidines) DNA: GGAGCGCACTCAGCCACGGCACGACGGTGATGAATTAGCGCGGTGTCGGTGGTGTCATTTCGACCTCTCTGCTAGC | 124
AMX206.F9 (mixed, 2'-OH purines, deoxy pyrimidines) DNA: GGAGCGCACTCAGCCACGGAGCGTCGGTGATGGATTAGCGCGGCTCCGTGGTACACATTTCGACCTCTCTGCTAGC | 139
AMX205.F9 (mixed, 2'-OH purines, deoxy pyrimidines) DNA: GGAGCGCACTCAGCCACGGAGCGTCGGTGATGGATTAGCGCGGCTCCGTGGTACGCCTTTCGACCTCTCTGCTAGC | 145
AMX206.H9 (mixed, 2'-OH purines, deoxy pyrimidines) DNA: GGAGCGCACTCAGCCACGGAGCGTCGGTGATGGATTAGCGCGGTTCCGTGGTACACCTTTCGACCTCTCTGCTAGC | 109
AMX206.E7 (mixed, 2'-OH purines, deoxy pyrimidines) DNA: GGAGCGCACTCAGCCACGGAGCGTCGGTGATGGATTAGCGCGGCTCCGTGGTACACCTTTCGACCTCTCTGCTAGC | 151

Molecular target: von Willebrand factor A1 domain (human) (Homo sapiens, UniProt P04275 SEQ:13-246)
Assay: filter; 100 nM protein
Conditions: not given
Procedure: All unique clones were assayed in a 3-point dot blot screen (no protein target control, 100 nM human vWF A1 domain (SEQ ID NO 5), or 100 nM rabbit vWF A1 domain (SEQ ID NO 6). The data are presented in the third and fourth columns of Table 14 below as the ratio of the fraction of the aptamer bound to the nitrocellulose in the presence of the target protein to the fraction of aptamer bound in the absence of the target protein.

Binder | binding signal
AMX199.F11 (ssDNA) DNA: CTACCTACGATCTGACTAGCGAAACACTAGGTTGGTTAGGATTGGTGTGTTTCTGCTCTGCTTACTCTCATGTAGTTCC | 1.44 ratio to no protein
AMX199.F8 (ssDNA) DNA: CTACCTACGATCTGACTAGCAAGGGGATTGGCTCCGGGTCTGGCGTGCTTGGCACCTCTGGCTTACTCTCATGTAGTTCC | 1.78 ratio to no protein
AMX200.E10 (ssDNA) DNA: CTACCTACGATCTGACTAGCAAGGGGATTGGCTCCGGGTCTGGCGTGCTCGGCACCTTTGGCTTACTCTCATGTAGTTCC | 1.69 ratio to no protein
AMX199.D8 (ssDNA) DNA: CTACCTACGATCTGACTAGCAAGGGGATTGGCTCCGGGTCTGGCGTGCTTGGCATCTTCGGCTTACTCTCATGTAGTTCC | 1.89 ratio to no protein
AMX202.F6 (ssDNA) DNA: CTACCTACGATCTGACTAGCAAGGGGATTGGCTCCGGGTCTGGCGTGCTCGGCACCTTCGGCTTACTCTCATGTAGTTCC | 1.49 ratio to no protein
AMX199.B6 (ssDNA) DNA: CTACCTACGATCTGACTAGCAAGGGGATTGGCTCCGGGTCTGGCGTGCTTGGTACCTCCGGCTTACTCTCATGTAGTTCC | 2.01 ratio to no protein
AMX200.A11 (ssDNA) DNA: CTACCTACGATCTGACTAGCTGAGTAGTTAGTAACTTTTTATTATGGTTTGGTGGGTCTGGCTTACTCTCATGTAGTTCC | 1.49 ratio to no protein
AMX200.H8 (ssDNA) DNA: CTACCTACGATCTGACTAGCTGAGTAGTCAGTAATTTTTTATTATGGTTTGGTGGGCCTGGCTTACTCTCATGTAGTTCC | 1.86 ratio to no protein
AMX202.H10 (ssDNA) DNA: CTACCTACGATCTGACTAGCGGAATGAGAAGGCTGGTGGATTGCTCAGGTCTGCTGGCTGCTTACTCTCATGTAGTTCC | 1.92 ratio to no protein
AMX202.B8 (ssDNA) DNA: CTACCTACGATCTGACTAGCGGAATGAGTATGCTGATGGATTGCTCAGGTCTGCTGGCTGCTTACTCTCATGTAGTTCC | 1.66 ratio to no protein
AMX202.D6 (ssDNA) DNA: CTACCTACGATCTGACTAGCGGAATGAGAAGGCTGATGGATTGCTCAGGTCTGCTGGCTGCTTACTCTCATGTAGTTCC | 1.94 ratio to no protein
AMX202.A3 (ssDNA) DNA: CTACCTACGATCTGACTAGCGGAATGAGAGCGCTGATGGATTGCTCAGGTCTGCTGGCTGCTTACTCTCATGTAGTTCC | 2.28 ratio to no protein
